Measurements from PMC2139825.

Target: bacterially expressed full-length chicken CRP1 (chicken) (UniProt P67966)
Experiment: radioligand binding

Chain of UniProt P67966 (P67966 whole entry): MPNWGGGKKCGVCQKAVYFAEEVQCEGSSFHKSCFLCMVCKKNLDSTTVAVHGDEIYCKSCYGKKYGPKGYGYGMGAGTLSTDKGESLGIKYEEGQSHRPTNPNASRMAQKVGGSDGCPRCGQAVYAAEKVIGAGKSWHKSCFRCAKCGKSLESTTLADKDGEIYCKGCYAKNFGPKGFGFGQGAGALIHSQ

“α-actinin (avian smooth muscle) (from UniProt P05094 1-893) (natural protein)” showed a Kd of 1.8 µM and a cpm bound specifically (0.26 pmoles [125I]α-actinin in 120 μl, no competitor) of 3080 cpm.
